This is an account of results in US7144986B2, “Polypeptides comprising IL-6 ligand binding receptor domains” (The United States of America as represented by the …, priority 1999, dated 2006).

recombinant human IL-6, sequence (P05231 30-212): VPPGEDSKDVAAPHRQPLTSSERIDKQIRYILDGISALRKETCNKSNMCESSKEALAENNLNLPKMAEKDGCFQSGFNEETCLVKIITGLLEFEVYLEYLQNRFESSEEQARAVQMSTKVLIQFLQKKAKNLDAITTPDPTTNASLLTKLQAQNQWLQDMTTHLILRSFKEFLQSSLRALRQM

The first assay addresses recombinant human IL-6 (Homo sapiens, UniProt P05231). The assay is described as follows: Binding of radioiodinated recombinant human IL-6 to synthetic peptide arrays in 96-well microtiter plates. To be noted: Example 1, domain I peptides (IL-6 receptor residues 66–86): truncations and alanine replacements; radiolabeled IL-6 remaining after wash. The method, then:
Synthetic peptide arrays were constructed in 96-well microtiter plates in accordance with the method set forth in WO 91/02714 (Saxinger), and used to test the binding of recombinant human IL-6 that had been labeled with radioactive iodine (radiolabeling by standard methods). After incubating the radiolabeled IL-6 ligand in a well with each synthetic peptide, a washing step was performed to remove unbound label, and the relative level of radioactivity remaining in each well of the plate was evaluated to determine the relative affinity of each peptide for IL-6 ligand.
Each of the four binding domains was analyzed in detail, which is set forth in these examples. First, serial truncations (or nested truncations) were performed from each end of the peptides to determine the location of the critical binding residues within each domain. Second, each amino acid residue in the critical regions of each domain were serially replaced by an alaninyl residue to indicate whether the side-chain of the residue at each particular location is likely to be essential or important to the mechanism of binding.
This example employs essentially the same techniques as Examples 1–4 except that fragments of the β-chain of the IL-6 receptor are used. As is known in the art, the β-chain is shared by multiple receptors. Thus, the identified fragments here are effective inhibitors of a multiplicity of binding reactions in addition to the IL-6 ligand:IL-6 receptor interaction.
Consider AAGSHPSRWAGMGRRL [Peptide A6], for which the Counts/minute bound was determined as 1753 Counts/minute.

For AAGSHPSRWAGMGRRLLLRSV [Peptide A1], the Counts/minute bound turned out to be 10739 Counts/minute.

For AAGSHPSRWAGMGRRLLLRSV [Peptide A17], the Counts/minute bound came out at 10884 Counts/minute.

Turning to AAGSHPSRWAGMGRRLLLRSV [Peptide A33], the Counts/minute bound is recorded as 10213 Counts/minute.

The assay is the same for the next values; noted with them: Example 2, domain II peptides (IL-6 receptor residues 136–156): truncations and alanine replacements.
Turning to PRSTPSLTTKAVLL [Peptide B8], the Counts/minute bound is 1846 Counts/minute.

Turning to PRSTPSLTTKAVLLVRKFQNS [Peptide B1], the Counts/minute bound is listed as 10790 Counts/minute.

In the case of PRSTPSLTTKAVLLVRKFQNS [Peptide B17], the Counts/minute bound was found to be 12347 Counts/minute.

Regarding PRSTPSLTTKAVLLVRKFQNS [Peptide B33], the Counts/minute bound is given as 11699 Counts/minute.

Consider TKAVLLVRKFQNS [Peptide B25], for which the Counts/minute bound came to 5753 Counts/minute.

As to TKAVLLVRKFQNS [Peptide B26], the Counts/minute bound is 5226 Counts/minute.

The assay is the same for the next values; noted with them: Example 3, domain III peptides (IL-6 receptor residues 246–266): truncations and alanine replacements.
Take SSFYRLRFELRYRAERSKTFT [Peptide C1]: the Counts/minute bound amounted to 14571 Counts/minute.

In the case of SSFYRLRFELRYRAERSKTFT [Peptide C17], the Counts/minute bound was 15127 Counts/minute.

Turning to SSFYRLRFELRYRAERSKTFT [Peptide C33], the Counts/minute bound was 14610 Counts/minute.

Still in this assay, the particulars now being: Example 4, domain IV peptides, D11–D57, separate experiment: truncations and alanine replacements.
As to GGSLAFGTLLCIAIVLRFKKT [Peptide D11], the Counts/minute bound was 20349 Counts/minute.

As for GGSLAFGTLLCIAIVLRFKKT [Peptide D27], the Counts/minute bound is 21945 Counts/minute.

As for GGSLAFGTLLCIAIVLRFKKT [Peptide D43], the Counts/minute bound was found to be 20385 Counts/minute.

With LRFKKT [Peptide D42], the Counts/minute bound is 1958 Counts/minute.

The assay is the same for the next values; noted with them: Example 5, fragments of the β-chain of the IL-6 receptor.
LTCNILTFGQLEQNVYGITIISGL [Peptide E11]: the Counts/minute bound is given as 1816 Counts/minute.

Consider SDKAPCITDWQQEDGTVHRTYLRG [Peptide E47], for which the Counts/minute bound stood at 2079 Counts/minute.

Still in this assay, the particulars now being: receptor sequence taken 21 amino acid residues at a time.
AAGSHPSRWAGMGRRLLLRSV [Peptide A1]: the “Initial screening of IL-6 receptor primary sequence for binding of IL-6 ligand” value (“Initial screening” for short) is on record as “active binding sequences”.

Take GGSLAFGTLLCIAIVLRFKKT [Peptide D5]: the “Initial screening” value is reported as “active binding sequences”.

Consider PRSTPSLTTKAVLLVRKFQNS [Peptide B1], for which the “Initial screening” value is reported as “active binding sequences”.

For SSFYRLRFELRYRAERSKTFT [Peptide C1], the “Initial screening” value is “active binding sequences”.
